Reference: paper PMC3299984 (Structure(London, England:1993), 2012)

Target: the molecule itself
Assay: SEC

B1: Schistosoma mansoni peroxiredoxin I (thioredoxin peroxidase I), reduced (enzyme)
chain: MVLLPNRPAPEFKGQAVINGEFKEICLKDYRGKYVVLFFYPADFTFVCPTEIIAFSDQVEEFNSRNCQVIACSTDSQYSHLAWDNLDRKSGGLGHMKIPLLADRKQEISKAYGVFDEEDGNAFRGLFIIDPNGILRQITINDKPVGRSVDETLRLLDAFQFVEKHGEVCPVNWKRGQHGIKVNQK
Which “stoichiometry N” value does the source give for B1 here?
Its value is 10.
